# Assay results as given in patent publication US20260035450.
# T1: recombinant human ANGPTL3 (rhANGPTL3) (SEQ ID NO:1)
# T1 chain: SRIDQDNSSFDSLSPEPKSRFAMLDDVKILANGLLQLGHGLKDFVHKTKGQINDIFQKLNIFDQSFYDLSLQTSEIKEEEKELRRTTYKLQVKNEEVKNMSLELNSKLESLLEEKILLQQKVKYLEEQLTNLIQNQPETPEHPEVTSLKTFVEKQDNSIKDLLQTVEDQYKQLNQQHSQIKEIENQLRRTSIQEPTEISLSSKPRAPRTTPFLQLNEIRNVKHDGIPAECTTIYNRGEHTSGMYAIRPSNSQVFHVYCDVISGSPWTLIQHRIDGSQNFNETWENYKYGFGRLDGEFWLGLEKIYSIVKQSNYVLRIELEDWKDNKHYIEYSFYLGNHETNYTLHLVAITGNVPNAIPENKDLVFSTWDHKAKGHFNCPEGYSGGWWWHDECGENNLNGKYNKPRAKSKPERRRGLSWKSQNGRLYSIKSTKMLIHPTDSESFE
# B1: bovine LPL (protein)
# chain: DRITGGKDFRDIESKFALRTPEDTAEDTCHLIPGVTESVANCHFNHSSKTFVVIHGWTVTGMYESWVPKLVAALYKREPDSNVIVVDWLSRAQQHYPVSAGYTKLVGQDVAKFMNWMADEFNYPLGNVHLLGYSLGAHAAGIAGSLTNKKVNRITGLDPAGPNFEYAEAPSRLSPDDADFVDVLHTFTRGSPGRSIGIQKPVGHVDIYPNGGTFQPGCNIGEALRVIAERGLGDVDQLVKCSHERSVHLFIDSLLNEENPSKAYRCNSKEAFEKGLCLSCRKNRCNNMGYEINKVRAKRSSKMYLKTRSQMPYKVFHYQVKIHFSGTESNTYTNQAFEISLYGTVAESENIPFTLPEVSTNKTYSFLLYTEVDIGELLMLKLKWISDSYFSWSNWWSSPGFDIGKIRVKAGETQKKVIFCSREKMSYLQKGKSPVIFVKCHDKSLNRKSG
# Biological target: T1, recombinant human ANGPTL3 (rhANGPTL3) …
protein,measurement,value
B1,"in vitro enzymatic activity of lipoprotein lipase (LPL), EnzChek Lipase substrate",The activity of bovine LPL is inhibited by addition of recombinant hANGPTL3 (rhANGPTL3)
